Target: T1, protease-activated receptor 2 (rat (endogenous in isolated Sprague Dawley rat arteries)) (UniProt Q63645)
T1 sequence: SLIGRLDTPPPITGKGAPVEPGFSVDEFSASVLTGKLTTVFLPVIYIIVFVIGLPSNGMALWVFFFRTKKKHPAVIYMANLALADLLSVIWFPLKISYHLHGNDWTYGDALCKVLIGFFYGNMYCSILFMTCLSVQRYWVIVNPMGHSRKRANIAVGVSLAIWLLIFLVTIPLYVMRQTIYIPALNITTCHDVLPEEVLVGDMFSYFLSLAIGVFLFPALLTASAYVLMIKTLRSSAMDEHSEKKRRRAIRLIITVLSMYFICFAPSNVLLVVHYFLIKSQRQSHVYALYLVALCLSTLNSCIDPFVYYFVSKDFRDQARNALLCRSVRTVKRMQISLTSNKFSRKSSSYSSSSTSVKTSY

EC50 of vasodilatation to SLIGRL (10 nM-10 uM), wire myography, MRA pre-constricted with 1 uM phenylephrine, control: 7.02 µM | EC50 of vasodilatation to SLIGRL (100 nM-100 uM), wire myography, basilar artery pre-constricted with 1 uM 5-HT, control: 9.65 µM | EC50 of vasodilatation to SLIGRL, wire myography, MRA from heparin-treated rats with 0.1 mM L-NNA, control: 86.4 µM | EC50 of vasodilatation to SLIGRL, wire myography, MRA from heparin-treated rats with 0.1 mM L-NNA, pre-incubated with 10 uM apixaban: 6.45 µM | EC50 of vasodilatation to SLIGRL, wire myography, MRA from heparin-treated rats, control: 1.04 µM | EC50 of vasodilatation to SLIGRL, wire myography, MRA from heparin-treated rats, pre-incubated with 10 uM apixaban: 0.71 µM | EC50 of vasodilatation to SLIGRL, wire myography, MRA pre-constricted with 1 uM phenylephrine, pre-incubated with 10 uM apixaban: 1.83 µM | EC50 of vasodilatation to SLIGRL, wire myography, MRA with 0.1 mM L-NNA, control: 3.03 µM | EC50 of vasodilatation to SLIGRL, wire myography, MRA with 0.1 mM L-NNA, pre-incubated with 10 uM apixaban: 2.27 µM | EC50 of vasodilatation to SLIGRL, wire myography, basilar artery pre-constricted with 1 uM 5-HT, pre-incubated with 10 uM apixaban: 4.41 µM | EC50 of vasodilatation to SLIGRL, wire myography, basilar artery with 0.1 mM L-NNA, control: 34.1 µM | EC50 of vasodilatation to SLIGRL, wire myography, basilar artery with 0.1 mM L-NNA, pre-incubated with 10 uM apixaban: 20.3 µM
Binder: SLIGRL [PAR-2 peptide agonist SLIGRL]

Reference: paper PMC5513931
